T1: PUF4 RNA-binding domain (Saccharomyces cerevisiae, UniProt P25339 537-888)
T1 sequence: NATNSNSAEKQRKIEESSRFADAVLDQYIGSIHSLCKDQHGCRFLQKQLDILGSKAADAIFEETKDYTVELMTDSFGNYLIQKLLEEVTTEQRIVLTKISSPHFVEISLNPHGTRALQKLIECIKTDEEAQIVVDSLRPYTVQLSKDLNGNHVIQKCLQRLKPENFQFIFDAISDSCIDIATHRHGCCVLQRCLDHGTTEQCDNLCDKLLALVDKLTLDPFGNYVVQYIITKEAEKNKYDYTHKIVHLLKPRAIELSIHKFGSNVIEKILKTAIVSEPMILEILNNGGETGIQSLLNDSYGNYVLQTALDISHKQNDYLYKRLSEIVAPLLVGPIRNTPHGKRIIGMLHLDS


Biological target: T1, PUF4 RNA-binding domain
Assay: Mg; RNA-MaP; 20 mM Na-HEPES pH 7.4, 30 mM KOAc, 0.75 mM MgCl2, 0.1% Tween-20, 5% glycerol, 0.1 mg/mL BSA, 2 mM DTT; 25 C; 0.0125-409.6 nM protein
Conditions: tags: N-His6-TEV cleaved; C-SNAP kept, Cy3B-labelled; label: tethered on chip by stalled RNA polymerase

| Binder | Kd [µM] |
| --- | --- |
| UCUCUUGUACACUAUAUCUCUCUU (ssRNA) [Id_ii_S1_P3E.4_K3.3_C3.2_[C-2G]_H3.3_A3.1_F3.1_T3.2_[A10C]] | 0.000836 |
| UCUCUUGUACACUAUAUUUCUCUU (ssRNA) [Id_ii_S1_P3E.4_K3.3_C3.2_[C-2G]_H3.3_A3.1_F3.1_T3.2_[A10T]] | 0.000901 |
| UCUCUUGUACACUAUAUAUCUCUU (ssRNA) [Id_ii_S1_P3E.4_K3.3_C3.2_[C-2G]_H3.3_A3.1_F3.1_T3.2] | 0.000819 |
| UCUCUUUGACACUAUACAUCUCUU (ssRNA) [Id_ii_S1_P3E.4_K3.3_C3.2_[C-2T]_[T-1G]_H3.3_A3.1_F3.1_T3.2_[T9C]] | > 2.3 |
| UCUCUUUGACACUAUAAUUCUCUU (ssRNA) [Id_ii_S1_P3E.4_K3.3_C3.2_[C-2T]_[T-1G]_H3.3_A3.1_F3.1_T3.2_[T9A]_[A10T]] | > 2.3 |
| UCUCUUUGACACUAUAAAUCUCUU (ssRNA) [Id_ii_S1_P3E.4_K3.3_C3.2_[C-2T]_[T-1G]_H3.3_A3.1_F3.1_T3.2_[T9A]] | > 2.3 |
| UCUCUUUCACACUAUACCUCUCUU (ssRNA) [Id_ii_S1_P3E.4_K3.3_C3.2_[C-2T]_[T-1C]_H3.3_A3.1_F3.1_T3.2_[T9C]_[A10C]] | > 2.3 |
| UCUCUUUCACACUAUAAUUCUCUU (ssRNA) [Id_ii_S1_P3E.4_K3.3_C3.2_[C-2T]_[T-1C]_H3.3_A3.1_F3.1_T3.2_[T9A]_[A10T]] | > 2.3 |
| UCUCUUUCACACUAUAAAUCUCUU (ssRNA) [Id_ii_S1_P3E.4_K3.3_C3.2_[C-2T]_[T-1C]_H3.3_A3.1_F3.1_T3.2_[T9A]] | > 2.3 |
| UCUCUUUGUAUAGUAUCUCUU (ssRNA) [Ia_S1_P4E.1_K4.1_C4.1_H4.1_A4.1_[T7G]_F4.1_T4.1] | 0.00225 |
| UCUCUUUAUAUGUUAUCUCUU (ssRNA) [Ib_S1_P4E.1_K4.1_C4.1_H4.1_[G2A]_A4.1_[A6G]_F4.1_T4.1] | 0.635 |
| UCUCUUUCACACUAUAUUUCUCUU (ssRNA) [Id_ii_S1_P3E.4_K3.3_C3.2_[C-2T]_[T-1C]_H3.3_A3.1_F3.1_T3.2_[A10T]] | > 2.3 |
| UCUCUUUAACACUAUACGUCUCUU (ssRNA) [Id_ii_S1_P3E.4_K3.3_C3.2_[C-2T]_[T-1A]_H3.3_A3.1_F3.1_T3.2_[T9C]_[A10G]] | > 2.3 |
| UCUCUUUUACACUAUAGCUCUCUU (ssRNA) [Id_ii_S1_P3E.4_K3.3_C3.2_[C-2T]_H3.3_A3.1_F3.1_T3.2_[T9G]_[A10C]] | > 2.3 |
| UCUCUUUUACACUAUACGUCUCUU (ssRNA) [Id_ii_S1_P3E.4_K3.3_C3.2_[C-2T]_H3.3_A3.1_F3.1_T3.2_[T9C]_[A10G]] | 2.06 |
| UCUCUUUUACACUAUACCUCUCUU (ssRNA) [Id_ii_S1_P3E.4_K3.3_C3.2_[C-2T]_H3.3_A3.1_F3.1_T3.2_[T9C]_[A10C]] | 1.91 |

| Binder | Kd [µM] |
| --- | --- |
| UCUCUUUUACACUAUACUUCUCUU (ssRNA) [Id_ii_S1_P3E.4_K3.3_C3.2_[C-2T]_H3.3_A3.1_F3.1_T3.2_[T9C]_[A10T]] | 1.22 |
| UCUCUUUUACACUAUACAUCUCUU (ssRNA) [Id_ii_S1_P3E.4_K3.3_C3.2_[C-2T]_H3.3_A3.1_F3.1_T3.2_[T9C]] | 1.14 |
| UCUCUUUUACACUAUAAGUCUCUU (ssRNA) [Id_ii_S1_P3E.4_K3.3_C3.2_[C-2T]_H3.3_A3.1_F3.1_T3.2_[T9A]_[A10G]] | 1.52 |
| UCUCUUUUACACUAUAAUUCUCUU (ssRNA) [Id_ii_S1_P3E.4_K3.3_C3.2_[C-2T]_H3.3_A3.1_F3.1_T3.2_[T9A]_[A10T]] | > 2.3 |
| UCUCUUUUACACUAUAUGUCUCUU (ssRNA) [Id_ii_S1_P3E.4_K3.3_C3.2_[C-2T]_H3.3_A3.1_F3.1_T3.2_[A10G]] | 2.22 |
| UCUCUUUAUAUCUUAUCUCUU (ssRNA) [Ib_S1_P4E.1_K4.1_C4.1_H4.1_[G2A]_A4.1_[A6C]_F4.1_T4.1] | 0.672 |
| UCUCUUUUACACUAUAUCUCUCUU (ssRNA) [Id_ii_S1_P3E.4_K3.3_C3.2_[C-2T]_H3.3_A3.1_F3.1_T3.2_[A10C]] | 1.38 |
| UCUCUUUUACACUAUAUAUCUCUU (ssRNA) [Id_ii_S1_P3E.4_K3.3_C3.2_[C-2T]_H3.3_A3.1_F3.1_T3.2] | 1.03 |
| UCUCUUAGACACUAUACCUCUCUU (ssRNA) [Id_ii_S1_P3E.4_K3.3_C3.2_[C-2A]_[T-1G]_H3.3_A3.1_F3.1_T3.2_[T9C]_[A10C]] | > 2.3 |
| UCUCUUAGACACUAUACAUCUCUU (ssRNA) [Id_ii_S1_P3E.4_K3.3_C3.2_[C-2A]_[T-1G]_H3.3_A3.1_F3.1_T3.2_[T9C]] | > 2.3 |
| UCUCUUAGACACUAUAAUUCUCUU (ssRNA) [Id_ii_S1_P3E.4_K3.3_C3.2_[C-2A]_[T-1G]_H3.3_A3.1_F3.1_T3.2_[T9A]_[A10T]] | > 2.3 |
| UCUCUUAGACACUAUAAAUCUCUU (ssRNA) [Id_ii_S1_P3E.4_K3.3_C3.2_[C-2A]_[T-1G]_H3.3_A3.1_F3.1_T3.2_[T9A]] | > 2.3 |
| UCUCUUAGACACUAUAUCUCUCUU (ssRNA) [Id_ii_S1_P3E.4_K3.3_C3.2_[C-2A]_[T-1G]_H3.3_A3.1_F3.1_T3.2_[A10C]] | > 2.3 |
| UCUCUUAGACACUAUAUUUCUCUU (ssRNA) [Id_ii_S1_P3E.4_K3.3_C3.2_[C-2A]_[T-1G]_H3.3_A3.1_F3.1_T3.2_[A10T]] | > 2.3 |
| UCUCUUACACACUAUAGUUCUCUU (ssRNA) [Id_ii_S1_P3E.4_K3.3_C3.2_[C-2A]_[T-1C]_H3.3_A3.1_F3.1_T3.2_[T9G]_[A10T]] | > 2.3 |
| UCUCUUACACACUAUAGAUCUCUU (ssRNA) [Id_ii_S1_P3E.4_K3.3_C3.2_[C-2A]_[T-1C]_H3.3_A3.1_F3.1_T3.2_[T9G]] | > 2.3 |

From publication PMC9352680, “A comprehensive thermodynamic model for RNA binding by the Saccharomyces cerevisiae Pumilio protein PUF4”
